The values that follow are results of earlier work, collected in paper PMC11348067.

One may read the Kd as the constant that tells how readily two partners part at equilibrium.

This data set deals with Mucin 1 (human) (UniProt P15941). As to the kind of experiment: not stated (cited). Conditions: aptamer/padlock annealed in water with 80 mM NaCl (2 uL of 800 mM in 20 uL), then 40 uL protein added, 30 min; pH and binding temperature not stated; ligation ….
Sequence of Mucin 1 (human) (P15941 24-1158): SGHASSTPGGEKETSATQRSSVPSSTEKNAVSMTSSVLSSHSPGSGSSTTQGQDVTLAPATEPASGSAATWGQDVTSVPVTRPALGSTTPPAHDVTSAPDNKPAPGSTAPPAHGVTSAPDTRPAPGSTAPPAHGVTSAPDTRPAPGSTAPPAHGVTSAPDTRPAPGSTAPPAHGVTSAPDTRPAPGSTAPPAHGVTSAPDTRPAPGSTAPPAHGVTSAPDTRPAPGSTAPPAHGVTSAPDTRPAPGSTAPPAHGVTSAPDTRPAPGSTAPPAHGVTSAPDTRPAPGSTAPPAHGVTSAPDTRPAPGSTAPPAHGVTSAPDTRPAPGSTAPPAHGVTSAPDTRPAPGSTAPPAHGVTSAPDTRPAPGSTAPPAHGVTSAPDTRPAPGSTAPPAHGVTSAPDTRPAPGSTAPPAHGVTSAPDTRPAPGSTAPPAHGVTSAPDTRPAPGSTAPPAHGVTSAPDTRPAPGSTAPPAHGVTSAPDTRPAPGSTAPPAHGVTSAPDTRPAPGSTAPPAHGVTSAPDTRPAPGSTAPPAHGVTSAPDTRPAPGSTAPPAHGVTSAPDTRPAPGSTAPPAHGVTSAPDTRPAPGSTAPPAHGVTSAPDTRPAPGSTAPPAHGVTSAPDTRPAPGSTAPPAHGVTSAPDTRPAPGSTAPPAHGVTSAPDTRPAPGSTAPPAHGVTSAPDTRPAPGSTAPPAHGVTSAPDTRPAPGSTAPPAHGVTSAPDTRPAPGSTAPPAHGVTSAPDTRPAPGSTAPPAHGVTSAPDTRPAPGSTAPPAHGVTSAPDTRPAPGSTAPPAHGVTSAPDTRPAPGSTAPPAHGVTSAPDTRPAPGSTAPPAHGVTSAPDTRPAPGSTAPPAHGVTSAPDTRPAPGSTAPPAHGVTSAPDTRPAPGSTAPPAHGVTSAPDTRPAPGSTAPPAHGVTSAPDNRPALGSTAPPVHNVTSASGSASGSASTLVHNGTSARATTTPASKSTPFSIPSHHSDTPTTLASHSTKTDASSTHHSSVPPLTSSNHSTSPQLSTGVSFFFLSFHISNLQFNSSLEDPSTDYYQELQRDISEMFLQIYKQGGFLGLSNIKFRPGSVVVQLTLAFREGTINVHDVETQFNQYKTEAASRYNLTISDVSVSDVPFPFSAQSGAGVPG

With “GCAGTTGATCCTTTGGATACCCTGGAGTGA [Mucin 1 aptamer]”, the Kd was 0.135 nM.
